Laboratory results reported in the supplement of paper PMC6757056.
± gives the standard deviation of the averaged measurements.

B1: library; a variant is named by its letters at N, in order (parent)
chain: GCUGUCACCGGUGCUUGGUACGUUAUAUUCAGCCGGUCUGAUGAGUCUNNNNNNAGACGAAACAGC

Columns and labels:
[1] = variants of: B1; experiment: FACS-Seq fitted mean relative fluorescence mCherry/BFP without ligand (log10 relative fluorescence); HEK293T overexpressing SLC46A1; higher = higher reporter protein expression; conditions: without (6R,S)-folinic acid; ligand present: no
Method in brief: (§1)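 To measure fluorescence, a normal distribution was fitted to read counts across sorted bins. The reporter libraries were HEK293T cells transduced by lentivirus with mCherry under ribozyme-switch control and an EF1α-BFP marker, enriched and then kept with or without ligand for 48 h. Sorting used 6 mCherry/BFP bins, and bin genomic DNA was PCR-amplified and sequenced on MiSeq. Fitted means of log10(mCherry/BFP) were scaled to five spiked-in control ribozymes.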

[2] = variants of: B1; experiment: normalized RNA/DNA level without ligand (relative to sTRSVctl = 100) (log10 (% of sTRSVctl)); HEK293T overexpressing SLC46A1; higher = less ribozyme self-cleavage, higher mRNA level; conditions: without (6R,S)-folinic acid; ligand present: no
Method in brief: (§2)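 Library plasmids carrying ribozyme switches linked to mCherry, or to eGFP in some ligand experiments, were transfected into HEK293T at 4 µg per 6-well well, with any ligand added 1 h earlier. Seventy-two hours on, total RNA was extracted with EDTA and reverse-transcribed, amplified, barcoded and sequenced. RNA level was RNA over DNA reads normalized to a spiked-in non-cleaving sequence or to the top sequences, then scaled and log-transformed. The top set was 25 sequences, the transform was ×100 and log10, and sequences needed ≥100 DNA reads.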

[3] = variants of: B1; experiment: FACS-Seq fitted mean relative fluorescence mCherry/BFP with ligand (log10 relative fluorescence); HEK293T overexpressing SLC46A1; ligand concentration (+) FACS-Seq: 6 mM; higher = higher reporter protein expression; conditions: with (6R,S)-folinic acid; ligand present: yes
Method in brief: as §1

[4] = variants of: B1; experiment: normalized RNA/DNA level with ligand (relative to sTRSVctl = 100) (log10 (% of sTRSVctl)); HEK293T overexpressing SLC46A1; ligand concentration (+) RNA-Seq: 6 mM; higher = less ribozyme self-cleavage, higher mRNA level; conditions: with (6R,S)-folinic acid; ligand present: yes
Method in brief: as §2

Row | Variant | FACS-Seq fitted mean (log10) [1] | normalized RNA/DNA level without ligand (log10) [2] | FACS-Seq fitted mean (log10) [3] | normalized RNA/DNA level with ligand (log10) [4]
1 | GCUUCA | 0.3988 ± 0.0025 | 2.04 ± 0.033 | 0.641 ± 0.1 | 2.06 ± 0.031
2 | GCGUAC | 0.258 ± 0.3 | 1.974 ± 0.0093 | 0.514 ± 0.11 | 2.02 ± 0.022
3 | GCGUAG | 0.314 ± 0.07 | 1.962 ± 0.0022 | 0.372 ± 0.13 | 2.05 ± 0.022
4 | GCGUAA | 0.297 ± 0.07 | 1.991 ± 0.014 | 0.2 ± 0.11 | 2.04 ± 0.046
5 | ACUUGG | 0.457 ± 0.11 | 1.898 ± 0.0091 | 0.649 ± 0.022 | 2 ± 0.049
6 | CCUAAG | 0.536 ± 0.044 | 1.9074 ± 0.0005 | 0.332 ± 0.0073 | 2.002 ± 0.018
7 | CCUAAU | 0.239 ± 0.0063 | 2.041 ± 0.011 | 0.0269 ± 0.022 | 2.07 ± 0.067
8 | UCUGGG | 0.501 ± 0.098 | 1.836 ± 0.012 | 0.524 ± 0.01 | 1.98 ± 0.027
9 | UCUGGA | 0.542 ± 0.018 | 1.99 ± 0.012 | -0.0265 ± 0.23 | 2.05 ± 0.027
10 | UCGGUU | 0.629 ± 0.068 | 2.033 ± 0.0021 | 0.695 ± 0.2 | 2.06 ± 0.023
11 | ACUGAA | 0.265 ± 0.035 | 1.953 ± 0.0034 | 0.375 ± 0.18 | 1.981 ± 0.0063
12 | ACUGAG | 0.198 ± 0.044 | 1.7978 ± 0.0006 | 0.446 ± 0.082 | 2 ± 0.023
13 | CCUUUA | 0.459 ± 0.027 | 2.019 ± 0.018 | 0.136 ± 0.057 | 2.06 ± 0.053
14 | GCUGGU | 0.447 ± 0.19 | 1.969 ± 0.0056 | 0.172 ± 0.21 | 1.99 ± 0.032
15 | UCUUGG | 0.272 ± 0.099 | 1.904 ± 0.0099 | 0.131 ± 0.092 | 1.99 ± 0.022
16 | UCUUGC | 0.264 ± 0.036 | 2.018 ± 0.0075 | 0.449 ± 0.17 | 2.009 ± 0.016
17 | GCUGUU | 0.356 ± 0.02 | 2.043 ± 0.0085 | 0.145 ± 0.17 | 2.04 ± 0.042
18 | GCUGAA | -0.084 ± 0.057 | 2.021 ± 0.02 | -0.25 ± 0.14 | 2.03 ± 0.028

Row | Variant | FACS-Seq fitted mean (log10) [1] | normalized RNA/DNA level without ligand (log10) [2] | FACS-Seq fitted mean (log10) [3] | normalized RNA/DNA level with ligand (log10) [4]
19 | GCUGAU | 0.277 ± 0.044 | 2.036 ± 0.0025 | 0.23 ± 0.0065 | 2.014 ± 0.019
20 | ACUGUG | 0.5433 ± 0.0045 | 1.853 ± 0.017 | 0.593 ± 0.12 | 2 ± 0.022
21 | CCUACA | -0.221 ± 0.03 | 2.02 ± 0.044 | -0.392 ± 0.29 | 2.04 ± 0.043
22 | ACUAAC | 0.18 ± 0.0049 | 2 ± 0.017 | 0.412 ± 0.046 | 2.01 ± 0.045
23 | ACUAAG | 0.437 ± 0.1 | 1.924 ± 0.018 | 0.751 ± 0.14 | 2 ± 0.037
24 | ACUAAA | 0.538 ± 0.18 | 1.9903 ± 0.0016 | 0.483 ± 0.097 | 2.022 ± 0.018
25 | GCUGCC | 0.382 ± 0.084 | 2.08 ± 0.0024 | 0.484 ± 0.32 | 2.042 ± 0.0033
26 | ACGUUA | 0.21 ± 0.027 | 1.991 ± 0.011 | 0.285 ± 0.14 | 2.02 ± 0.027
27 | ACGUUU | -0.149 ± 0.046 | 2.004 ± 0.015 | -0.00103 ± 0.41 | 2.025 ± 0.015
28 | UCGUCG | 0.35 ± 0.044 | 2.02 ± 0.04 | 0.455 ± 0.16 | 2.06 ± 0.011
29 | GCUUUA | 0.213 ± 0.02 | 1.99 ± 0.026 | 0.0416 ± 0.19 | 1.98 ± 0.05
30 | CCUGCU | -0.139 ± 0.054 | 2.06 ± 0.013 | -0.135 ± 0.0061 | 2.08 ± 0.04
31 | ACUGGG | -0.0324 ± 0.033 | 1.841 ± 0.016 | 0.115 ± 0.1 | 2.0256 ± 0.0015
32 | ACGUGA | 0.282 ± 0.011 | 1.958 ± 0.012 | 0.173 ± 0.2 | 2.025 ± 0.015
33 | GCUACA | -0.313 ± 0.09 | 2.017 ± 0.018 | -0.102 ± 0.14 | 2.03 ± 0.05
34 | UCUAAA | 0.394 ± 0.046 | 1.977 ± 0.0068 | 0.483 ± 0.022 | 2.018 ± 0.017
35 | UCGUUG | 0.531 ± 0.029 | 1.881 ± 9.4e-05 | 0.5984 ± 0.0051 | 2.006 ± 0.0038
36 | ACUUUA | 0.348 ± 0.12 | 1.978 ± 0.014 | 0.366 ± 0.15 | 2.01 ± 0.028
